Row | Binder | % of MAGE-A4 signal, Jurkat-NFAT; grey (>2%) (TRANK1) [%] | % of MAGE-A4 signal, Jurkat-NFAT; grey (>2%) (DPYSL2) [%] | % of MAGE-A4 signal, Jurkat-NFAT; grey (>2%) (AGFG2) [%]
1 | Molecule B (bispecific antibody, V domains shown) VH 1: YPQLVESGGGLVKPGGSLRLSCAARYPFTRLDMSWVRQAPGKGLEWVGSISPKGGSTYYNDNVLGRFTISRDNSKNTLYLQMNSLRAEDTAVYYCARDWGFFDNWGQGTLVTVSS VL 1: AIQMTQSPSSLSASVGDRVTITCRASQSISNYLAWYQQKPGKAPKLLIYNASHPEYDVPSRFSGSGSGTDFTLTISSLQPEDFATYYCQQYSSHPYTFGQGTKLEIK VH 2: not shown VL 2: QAVVTQEPSLTVSPGGTVTLTCGSSTGAVTTSNYANWVQEKPGQAFRGLIGGTNKRAPGTPARFSGSLLGGKAALTLSGAQPEDEAEYYCALWYSNLWVFGGGTKLTVL | 7.67 | 5.19 | 13.3
2 | Molecule A (bispecific antibody, V domains shown) VH 1: YVQLVESGGGLVKPGGSLRLSCAAPLPFTGLDMSWVRQAPGKGLEWVGSISPKGGSTYYNDNVLGRFTISRDNSKNTLYLQMNSLRAEDTAVYYCARDWGFFDLWGQGTLVTVSS VL 1: AIQMTQSPSSLSASVGDRVTITCRASQSISNYLAWYQQKPGKAPKLLIYDANAHENDVPSRFSGSGSGTDFTLTISSLQPEDFATYYCQQYSSHPYTFGQGTKLEIK VH 2: not shown VL 2: QAVVTQEPSLTVSPGGTVTLTCGSSTGAVTTSNYANWVQEKPGQAFRGLIGGTNKRAPGTPARFSGSLLGGKAALTLSGAQPEDEAEYYCALWYSNLWVFGGGTKLTVL | 4.56 | – | 86.5

Source: patent publication US20260098095A1

Chain of TRANK1 (beta, as listed by the source limits assumed, chain 3 of 2, other chains not shown): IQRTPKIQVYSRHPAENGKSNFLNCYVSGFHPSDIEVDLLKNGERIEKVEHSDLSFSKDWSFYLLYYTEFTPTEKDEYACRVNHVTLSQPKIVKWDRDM
Chain of AGFG2 (beta, as listed by the source limits assumed, chain 3 of 2, other chains not shown): as above
Chain of DPYSL2 (beta, as listed by the source limits assumed, chain 3 of 2, other chains not shown): as above
